In paper PMC11996680:

Target: T1, HOOK3-SNAPf labeled with Alexa-647 (human) (UniProt Q86VS8)
T1 sequence (chain, Alexa-647 on the SNAP tag): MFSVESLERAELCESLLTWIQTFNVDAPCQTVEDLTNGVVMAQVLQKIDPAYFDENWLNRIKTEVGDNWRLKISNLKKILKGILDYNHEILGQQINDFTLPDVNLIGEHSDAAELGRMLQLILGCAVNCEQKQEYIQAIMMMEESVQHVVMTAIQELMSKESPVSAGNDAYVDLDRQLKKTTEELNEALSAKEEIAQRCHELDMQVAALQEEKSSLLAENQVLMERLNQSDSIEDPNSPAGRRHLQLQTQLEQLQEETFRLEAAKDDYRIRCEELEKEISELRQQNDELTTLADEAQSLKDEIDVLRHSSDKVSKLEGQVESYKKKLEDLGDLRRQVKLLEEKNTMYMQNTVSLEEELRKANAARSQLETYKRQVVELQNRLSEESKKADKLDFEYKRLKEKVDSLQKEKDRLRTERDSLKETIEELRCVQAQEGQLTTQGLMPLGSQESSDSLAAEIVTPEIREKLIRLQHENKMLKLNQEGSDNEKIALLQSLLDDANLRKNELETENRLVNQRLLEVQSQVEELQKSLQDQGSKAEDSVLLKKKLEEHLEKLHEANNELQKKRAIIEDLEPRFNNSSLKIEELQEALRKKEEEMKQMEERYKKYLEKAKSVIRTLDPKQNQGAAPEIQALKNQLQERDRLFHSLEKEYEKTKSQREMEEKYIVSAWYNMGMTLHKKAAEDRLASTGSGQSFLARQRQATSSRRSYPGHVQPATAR

B1: GST–KIF1C^642–922–GFP (domain or fragment)
chain: EMEKRLQDLENQYRKEKEEADLLLEQQRLYADSDSGDDSDKRSCEESWRLISSLREQLPPTTVQTIVKRCGLPSSGKRRAPRRVYQIPQRRRLQGKDPRWATMADLKMQAVKEICYEVALADFRHGRAEIEALAALKMRELCRTYGKPDGPGDAWRAVARDVWDTVGEEEGGGAGSGGGSEEGARGAEVEDLRAHIDKLTGILQEVKLQNSSKDRELQALRDRMLRMERVIPLAQDHEDENEEGGEVPWAPPEGSEAAEEAAPSDRMPSARPPSPPLSSWE
TMR–dynein landing rate on microtubules (TIRF), dynein–dynactin–HOOK3 with against without GST–KIF1C stalk–GFP: 2.6 fold
